Test system: full-length rat proMMP9(1-708) (SEQ ID NO:11)
Sequence (chain, as listed by the source): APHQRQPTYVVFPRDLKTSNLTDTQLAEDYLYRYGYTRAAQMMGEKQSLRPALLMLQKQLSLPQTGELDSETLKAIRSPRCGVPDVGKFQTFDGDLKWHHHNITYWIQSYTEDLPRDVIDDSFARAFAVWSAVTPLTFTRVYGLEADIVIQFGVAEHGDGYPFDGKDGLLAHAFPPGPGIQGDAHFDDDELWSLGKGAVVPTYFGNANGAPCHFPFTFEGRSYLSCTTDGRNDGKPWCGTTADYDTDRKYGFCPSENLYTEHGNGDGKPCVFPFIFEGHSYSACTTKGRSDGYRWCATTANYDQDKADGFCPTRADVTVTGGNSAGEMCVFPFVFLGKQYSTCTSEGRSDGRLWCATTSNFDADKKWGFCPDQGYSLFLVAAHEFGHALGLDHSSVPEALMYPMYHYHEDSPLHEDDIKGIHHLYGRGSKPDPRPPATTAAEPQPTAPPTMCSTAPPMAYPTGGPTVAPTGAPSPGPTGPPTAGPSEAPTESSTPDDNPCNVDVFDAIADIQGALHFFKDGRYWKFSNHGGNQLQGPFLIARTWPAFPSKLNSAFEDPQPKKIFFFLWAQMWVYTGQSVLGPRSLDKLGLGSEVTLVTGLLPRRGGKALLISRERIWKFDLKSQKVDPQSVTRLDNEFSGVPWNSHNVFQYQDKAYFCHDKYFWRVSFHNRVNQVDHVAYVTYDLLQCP

Sequence of human catalytic MMP3, MMP3(100-265) (SEQ ID NO:8) (chain, as listed by the source): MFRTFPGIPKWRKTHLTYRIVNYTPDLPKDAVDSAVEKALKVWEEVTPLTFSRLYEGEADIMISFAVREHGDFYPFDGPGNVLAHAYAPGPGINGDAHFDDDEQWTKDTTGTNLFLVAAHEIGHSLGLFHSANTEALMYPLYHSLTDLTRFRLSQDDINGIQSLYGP

With “human catalytic MMP3, MMP3(100-265) (SEQ ID NO:8)” the “conversion of proMMP9 to catalytic MMP9 (Western blot standard)” value was “full-length rat proMMP9(1-708) (SEQ ID NO:11) converted to catalytic rat MMP9 by catalytic MMP3”.

Reference: patent publication US20130166268
